In assay [1] the target is recombinant ectodomain of glycoprotein E2 of GB virus (GBV-B) fused to the double Strep-Tag (GB virus (GBV-B)). The experiment in a line: Western blot.
The target in assay [2] is T1, VHH-E9 containing the strep-tag sequence of SEQ ID NO: 13 at the C terminus.
T1 construct: also called Strep-tagged anti-GFAP VHH E9; anti-GFAP VHH E9
The experiment in a line: ELISA assay after Friguet et al 1985 (method as in the sentence before).

From EP2871189A1 (INSTITUT PASTEUR, dated 2015) come the findings set out here.

B1: monoclonal antibody C23.21 (antibody, V domains shown)
VH: EVQLEQSGPELVKPGASVKMSCKASGYTFTNYYMKWVKQSHGKSLEWIGDLNPNNGDTFYNQKFKGKATLTVDKSSNTAYMQLNSLTSEDSAVYYCARTGRYEENAMDYWGQGTSVTVSS
VL: ELVMTQSPASLAVSLGQRATISCRASESVDSYGKSFMHWYQLKPGQPPKLLIYRASNLESGVPARFSGSGSRTDFTLTIDPVEADDAATYYCQQNNEDPWTFGGGTKLEIK
notes: also called C23-21 mAb; anti-strep tag C23-21 mAb
Consider B1, for which the binding result in assay [1] is “binds”. In assay [2], this molecule registered a Kd of 0.91 nM.
